{"source": "paper PMC11876735", "about": "(Journal of Nuclear Medicine, 2025)", "settings_in_all_cases": "in vivo", "key": {"[1]": {"parameters": "species or system patients", "procedure": "Dosimetry assessments were performed using planar scintigraphy methodology routinely used at the time the study was conducted ([9],[10]). […] The geometric mean between the anterior and posterior images at each time point was calculated ([11]). Source organ radioactivity was determined at each time point, and cumulative activities were calculated ([12]). Absorbed dose values in target organs were calculated using time-integrated activity coefficients ([13]) of source organs using OLINDA/EXM version 1.0 (Hermes Medical Solutions) ([14]). A blood-based model was used to derive the cumulative activity in the red marrow and the corresponding absorbed dose ([15],[16])."}, "[2]": {"test_system": "midgut neuroendocrine tumors", "parameters": "species or system patients", "text": "For tumor dosimetry, baseline scintigraphy was used to select tumors that were easily delineated on imaging. Tumor doses were derived using the sphere model of OLINDA/EXM version 1.0 ([14]). The ^177Lu dose factor values were interpolated for each lesion on the basis of its mass."}, "[3]": {"parameters": "species or system patients", "text": "Safety data were collected as previously described ([5]).", "remark": "listed apart in the source"}, "[4]": {"test_system": "midgut neuroendocrine tumors", "parameters": "species or system patients", "procedure": "The best tumor size change from baseline was assessed in individual lesions with dosimetric estimations. Tumor size was assessed by CT using 2 dimensions (longest [L] and perpendicular [W]) for each tumor per time point. Size change was based on the ratio of tumor area (L × W) at measured times (Tt) to tumor area at baseline (Tbl) and presented as a percentage where percentage tumor size change was ((Tt/Tbl) − 1) × 100%. Positive values indicate size growth, and negative values represent size reduction. Analyses were repeated using 1 dimension (short axis for lymph node lesions and long axis for other lesions). Tumor measurements were performed at 2–7 time points at 12-wk intervals until 72 wk after the first administration. […] However, the timings of dosimetry assessments were not the same for all lesions. Lesion uptake was assumed to be proportional to mass, resulting in a constant absorbed dose at all cycles for an equivalent injected activity. The cumulative absorbed dose was calculated for each target lesion. The correlation between tumor absorbed dose and effect was assessed by plotting the best percentage tumor size change from baseline versus the tumor cumulative absorbed dose.", "remark": "listed apart in the source"}}}
{"compound": "C[C@@H](O)[C@H](NC(=O)[C@@H]1CSSC[C@H](NC(=O)[C@@H](Cc2ccccc2)NC(=O)CN2CCN(CC(=O)O)CCN(CC(=O)O)CCN(CC(=O)O)CC2)C(=O)N[C@@H](Cc2ccc(O)cc2)C(=O)N[C@H](Cc2c[nH]c3ccccc23)C(=O)N[C@@H](CCCCN)C(=O)N[C@@H]([C@@H](C)O)C(=O)N1)C(=O)O", "note": "[^177Lu-DOTATATE, [^177Lu]Lu-DOTATATE, metal not drawn]", "values": [{"measurement": "Overall effective half-life of the elimination phase", "setting": "[1]; human", "value": "21 to 161", "unit": "h"}, {"measurement": "Cumulative red marrow dose", "setting": "[1]", "value": 3.2, "unit": "Gy"}, {"measurement": "Kidney doses in three substudy patients", "setting": "[1]", "value": "28-33 Gy"}, {"measurement": "Kidney injected activity profile, peak", "setting": "[1]", "value": "around 8%"}, {"measurement": "Absorbed dose for four 7.4 GBq (29.6 GBq in total), Median (range)", "setting": "[2]", "value": "134 (7–2,218) Gy"}, {"measurement": "Absorbed dose per unit activity, Median (range)", "setting": "[2]", "value": "4.5 (0.2–74.9) Gy/GBq"}, {"measurement": "Lesion activity at 160 h", "setting": "[2]", "value": "less than 0.01 % of injected activity"}, {"measurement": "Target lesions with cumulative absorbed dose of at least 50 Gy", "setting": "[2]", "value": 73.8, "unit": "%"}, {"measurement": "Target lesions with cumulative absorbed dose of at least 100 Gy", "setting": "[2]", "value": 52.3, "unit": "%"}, {"measurement": "Absorbed dose for four 7.4 GBq (29.6 GBq in total), Mean (SD)", "setting": "[2]; SD", "value": "224 (313) Gy"}, {"measurement": "Absorbed dose per unit activity, Mean (SD)", "setting": "[2]; SD", "value": "7.6 (10.6) Gy/GBq"}, {"measurement": "Acute hematologic toxicity grade", "setting": "[3]", "value": "mild or moderate (grade 1 or 2)"}, {"measurement": "Patients with grade 4 lymphopenia during treatment (acute toxicity)", "setting": "[3]", "value": 20, "unit": "%"}, {"measurement": "Patients with transient grade 3 leukopenia during treatment", "setting": "[3]", "value": 10, "unit": "%"}, {"measurement": "Severe renal toxicity", "setting": "[3]", "value": "no severe renal toxicity was observed"}, {"measurement": "Cumulative absorbed dose range of lesions with approximately 50 Gy or greater", "setting": "[4]", "value": "50–789 Gy"}, {"measurement": "Lesions that received a cumulative absorbed dose of approximately 50 Gy or greater", "setting": "[4]", "value": 73, "unit": "%"}]}
